Assay: yeast display, Sf9 membrane polyspecificity reagent, FACS + sequencing; frameworks hold sequencing errors
Procedure, shortened: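 After 36–48 hours of galactose induction, yeast (Saccharomyces cerevisiae BJ5465) displaying a synthetic nanobody library were stained at 4 °C for 1 hour with 10% biotinylated, detergent-solubilized Sf9 membrane reagent. Streptavidin microbeads enriched the stained cells before FACS sorting into low and high (top ~1%) gates on anti-HA and streptavidin fluorescence. Each clone's polyreactivity label reflects its gate of origin.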

Row | Sequence | polyreactivity (PSR sort gate)
1 | QVQLVESRGALVQAGGSLRLSCAASGSIFSRYAMGWYRQAPGKERELVAAIRWTDSSTYYADSVKGRFTISRDHAKNTVYLQMNSLKPEDTAVYDCAKVYEGGSNKVDYWGQGTQVTVSS | low polyreactivity
2 | QVQLVESRGCLVQAGGSLRLSCAASGFIFAYYAMGWYRQAPRKERELVGAISSGGTTNYADSVMGRFTSSRDNAKNTVYLQMNSLKPEDTAVYYCAAAWGYYSTTIYKYSFNYDFWGQGTQVTVSS | high polyreactivity
3 | QVQLVESRGCLVQAGGSLRLSCAASGRTFYRYVMGWYRQAPGKEMELVAAISEGGGSTFYADSVKGRFTISRDNAKNTDYLQMNSLKPEDTAVYYCAADYYVRGGFFRYDYWGQGTQVTVSS | low polyreactivity
4 | QVQLVESRGCLVQPGGSLLLSCAASGIIFGHYVMGWYRQAPGKERELVAAISSRGGNTYYADSVKGRFTISRDNAKNTVYLQMNSLKPEDTAVYYCAADRYATPMDYWGQGTQVTVSS | high polyreactivity
5 | QVQLVESRGGIVQAGGSLRLISAASGRTFGWNAKGWYRQERGKERELVAAISLRGTSTYYADSVKGRFTISRDNAKNTVYLQMNSLKPEDTAVYYCNTLVYVPYHEDYWGQGTQVTVSS | high polyreactivity
6 | QVQLVESRGGLVQAARSLRLSFAASGSIFSSNAMGWYRQAPGKERELVAAITSVGSTTYADSVKGRFTISRDNAKNTVYLQMNSLKPEDTAVYYFAADPVYRYYHGWTYVDYVYWGQGTQVTVSS | low polyreactivity
7 | QVQLVESRGGLVQAGASLRLSCAASALIFGYYAMGCYRQAPVKEREFVAAIDGSDGTTYYADSVKGRFTIARDNAKNTVYLQMNSLKPEDTAVYYCNADSSSYSSDLGYDYWGQGTQVTVSS | low polyreactivity
8 | QVQLVESRGGLVQAGCSLRLRCAASGYIFYGYDKGWYRPAPGKERELVAGITYSGGGGTHYADSVKGRFTISRDNAKNTVYLQMNSLKQEDRGVYYCAKADPQLNRTYYSYGMDSWGQGTQVTVSS | low polyreactivity
9 | QVQLVESRGGLVQAGGILRLSCAACGSTFPKYAMGWYRQAPGKERELVAAITGISGRTYYADSLKGRFTISRDNAKNTVYLQMNSLKPEDTAVYYCNARIFAGWSIYNYWGQGTQVTVSS | high polyreactivity
10 | QVQLVESRGGLVQAGGSLRISCAASGRIFGYNAMGWYRQAPGKERELVAAISASGGRTYYADSVKARFTISRDNAKNTVYLQMNSLKPEDTAVYYCATKYRSFYSYDYWGQGTQVTVSS | high polyreactivity
11 | QVQLVESRGGLVQAGGSLRLICAASGFILDTSAMGWYRQAPGKERALVAAISASGSSTYYADSVKGRFTISRDNAKNTLYLQMNSLKPEDTAVNYCAAKDTGYGYGFPRLDYWGQGTQVNVSS | low polyreactivity
12 | QVQLVESRGGLVQAGGSLRLSCAASGFIFGVNAMGWYRQAPGKERELVAAITRNGGSTYYADSVKGRFTISRDYAKNSVYLQMNSLKPEDTAVYYCAKYVRRAPSTFDVDYWGQGTQVTVSS | high polyreactivity
13 | QVQLVESRGGLVQAGGSLRLSCAASGFTFPFYAMGSYRQAPGKERELVAAISISGGSTHYADSVKGRFTISRDNAKNTVYLQMNSLKPEDTAVYYCAAEYGVVIYIDGWYPTLHEYYYSGQGTQVTVSS | high polyreactivity
14 | QVQLVESRGGLVQAGGSLRLSCAASGFTFRYYAMGWYRQAPGKERELVARITRCASTSYADSVKGRFTISRDNAKNTVYLLMISLIPEDTAVYYCAADSPAGGYVFPELPYDYWGQGTQVTVSS | low polyreactivity
15 | QVQLVESRGGLVQAGGSLRLSCAASGFTIDTYAMGWYRQAPGKERELVAGISWSGGSTYYADSVKGRFTISRDNAKNTVYLQMNSLKPEDTAVYYCNARDYSVGRYDYWGQGTQVTVSS | low polyreactivity
16 | QVQLVESRGGLVQAGGSLRLSCAASGIIFFKYAMGWYRQAPGKERELVAAISIDGSTNYADSVKGRFTISRDNAKNTVYLQMNSLKPEDTAVYYCNAKRYGFFYWQGDYWGQGTQVTVSS | low polyreactivity
17 | QVQLVESRGGLVQAGGSLRLSCAASGITFRTYSMGWYRQAPGKERELVAGIRTRTGSTYYADSVKGRFTISRDNAKNTVYLQMNSLKPEDTAVYYCAAKGSGYYGRQRIYSYTYDYWGQGTQVTVSS | high polyreactivity
18 | QVQLVESRGGLVQAGGSLRLSCAASGITFTRNVMGWYRPAPGKERELVAGISRSGGRTYYADSVKGRFTISRENAKNTVYLQMNSLKPEDTAVYYCAADYSRRTRVDDDYDYWGQGTQVTVSS | high polyreactivity
19 | QVQLVESRGGLVQAGGSLRLSCAASGLIFGFNTMGWYRQAPGKERELVAAITSGGGSTYYADSVKGRFTISRDNAKNTVYLQMNSLKPEDTAVYYCNAGGGRWRARQWHDYWGQGTQVTVSS | low polyreactivity
20 | QVQLVESRGGLVQAGGSLRLSCAASGLIFRHYAMGWYRQAPGKERELVAAITGSGSTYYADSVKGRFTISRDNAKNTVYFQMNSLKPEDTAVDYCAATVYSSGAMDYWGQGTQVTVSS | low polyreactivity
21 | QVQLVESRGGLVQAGGSLRLSCAASGRIFASYTMGWYRQAHGKERELVAAISWRGDGTYYADSVKGRFTISRDNAKNTVYLQMNSLKPEDTAVYYCAADYVYYYHEYDYWGQGTQVTVSS | low polyreactivity
22 | QVQLVESRGGLVQAGGSLRLSCAASGRIFSWYSMGWYRQPPGTERELVAGISWIGGSTYYADSVKGRFTFSRDNAKNTVYLQMISLKPEDTAVYYCNAEYFGEYRDYGYWGQGTQVTVSS | low polyreactivity
23 | QVQLVESRGGLVQAGGSLRLSCAASGRNFRFNAMGWYRQEPGKERELVAAISASGGITYYADSVKGRFTISRDNAKNTVYLQMNSLKPEDSAVYYCAADLYATWSYFFTWLDNWGQGTQVTVSS | high polyreactivity
24 | QVQLVESRGGLVQAGGSLRLSCAASGRTFSNAMGWYRQAPGNERELVADISSGGSTNYADSVKGRFTISRDNAKNTVYLQMNSLKPEDTAVYYCAAVSGSRYGYSDDYWGQGTQVTVSS | low polyreactivity
25 | QVQLVESRGGLVQAGGSLRLSCAASGRTFWYKAMGWYRQAPGKERELVAAISKSAAITYYADSVKGRFTISRDNAKNTVYLQMNSLKPEDTAVYYCNAGVRAVNRKYDYWGQGTQVTVSS | high polyreactivity
26 | QVQLVESRGGLVQAGGSLRLSCAASGSIFLYYARGRSRQSPGKERELVAAIRRGGNTNYADSVKGRFTISRDNAKNTVYLQLNSLKPEDTAVYYCAAAQYSRYSRVPNYYAGTYYYWGQGTQVTVSS | low polyreactivity
27 | QVQLVESRGGLVQAGGSLRLSCAASGSIFPFYAKGWYRQAPGKEREFVASISSGGSTNYADSVKGRFTISRDNAKNTVYLQMNSLKPEDTAVYYCNADVPYRWDTWFQVVYPESYDYWGQGTQVTVSS | low polyreactivity
28 | QVQLVESRGGLVQAGGSLRLSCAASGSIFRSNGMGWYRQPPGTERELVAAIRTSGGSTNYADSVKGRFTISRDNAKNTVSLQMNSLKPEDTAVYYCNTRDRGLGMMEYWGQGTQVTVSS | low polyreactivity
29 | QVQLVESRGGLVQAGGSLRLSCAASGSIFWLYAMGLYRQAPGKERELVAAIDSGDSTKYADSVKGRFTISRDNAKNTVYLQMNSLKREDTAVYYCNASRRYHVLAPYDYWGQGTQVTVSS | low polyreactivity
30 | QVQLVESRGGLVQAGGSLRLSCAASGSIFYDNAMGWYRQAPWKEREFVAAISLRTGRTYYADSVKGRFTISRDNAKNTVYLQMNSLKPEDTAVFYCAARGYYGPKYYYWGQGTQVTVSS | high polyreactivity

From the nanobody polyreactivity screen of Harvey et al. (2022)
